Target: the molecule itself
Test: high-speed atomic force microscopy

B1: Recombinant Human Neuronal Pentraxin 1 Protein (NP1) (natural protein, UniProt Q15818 23-432, looked up)
chain: QDFGPTRFICTSVPVDADMCAASVAAGGAEELRSSVLQLRETVLQQKETILSQKETIRELTAKLGRCESQSTLDPGAGEARAGGGRKQPGSGKNTMGDLSRTPAAETLSQLGQTLQSLKTRLENLEQYSRLNSSSQTNSLKDLLQSKIDELERQVLSRVNTLEEGKGGPRNDTEERVKIETALTSLHQRISELEKGQKDNRPGDKFQLTFPLRTNYMYAKVKKSLPEMYAFTVCMWLKSSATPGVGTPFSYAVPGQANELVLIEWGNNPMEILINDKVAKLPFVINDGKWHHICVTWTTRDGVWEAYQDGTQGGSGENLAPYHPIKPQGVLVLGQEQDTLGGGFDATQAFVGELAHFNIWDRKLTPGEVYNLATCSTKALSGNVIAWAESHIEIYGGATKWTFEACRQIN
binding result: binds

Reference: doi:10.1101/2023.12.19.572481 (bioRxiv, 2023)
